± gives the uncertainty stated by the source.
B1: Heterogeneous nuclear ribonucleoprotein U-like protein 2, residues 1 to 40; numbered along this chain, Q1KMD3 (parent)
chain: MEVKRLKVTELRSELQRRGLDSRGLKVDLAQRLQEALDAE

Variants of: B1
Experiment: abundance fitness (aPCA) (normalised: wild type 0, dead -1); higher = more abundant; growth selection in yeast, the domain comes from the species named
Settings: Homo sapiens

Variant	abundance fitness
Q31L	0.009 ± 0.054
Q31S	0.058 ± 0.057
Q31H	-0.418 ± 0.13
Q31F	-0.197 ± 0.079
Q31P	-0.121 ± 0.062
Q31W	-0.176 ± 0.054
Q31A	0.032 ± 0.058
Q31K	0.112 ± 0.067
Q31T	0.085 ± 0.069
Q31E	0.141 ± 0.078
Q31I	0.012 ± 0.077
Q31M	-0.041 ± 0.07
Q31V	-0.003 ± 0.055
Q31C	-0.016 ± 0.083
Q31G	-0.055 ± 0.049
Q31N	0.252 ± 0.13
E35V	-0.045 ± 0.059
E35C	-0.052 ± 0.064
E35L	-0.168 ± 0.054
E35H	-0.055 ± 0.065
E35G	-0.068 ± 0.049
E35S	-0.018 ± 0.06
E35P	-0.339 ± 0.059
E35F	-0.21 ± 0.079

Variant	abundance fitness
E35I	-0.167 ± 0.065
E35M	0.009 ± 0.08
E35D	0.036 ± 0.096
E35N	-0.036 ± 0.096
E35Y	-0.294 ± 0.12
E35T	0.005 ± 0.064
E35K	0.058 ± 0.079
E35R	-0.047 ± 0.049
D28L	-0.497 ± 0.055
D28F	-0.896 ± 0.12
D28I	-0.326 ± 0.17
D28K	-0.129 ± 0.073
D28Y	-0.715 ± 0.17
D28W	-1.35 ± 0.11
D28R	-0.342 ± 0.058
D28S	-0.407 ± 0.065
D28N	-0.248 ± 0.1
D28M	-0.382 ± 0.13
D28A	-0.09 ± 0.052
D28V	-0.119 ± 0.057
D28P	-0.681 ± 0.1
D28H	-0.19 ± 0.085
D28G	-0.513 ± 0.061
D28Q	-0.139 ± 0.066

Variant	abundance fitness
D28E	0.086 ± 0.063
Q34Y	-0.515 ± 0.058
Q34P	-0.396 ± 0.066
Q34E	-0.099 ± 0.058
Q34S	-0.171 ± 0.059
Q34R	-0.308 ± 0.051
Q34W	-0.624 ± 0.061
Q34K	-0.18 ± 0.081
Q34N	-0.119 ± 0.15
Q34C	-0.43 ± 0.081
Q34T	-0.145 ± 0.062
Q34L	-0.415 ± 0.055
Q34M	-0.283 ± 0.064
Q34D	-0.256 ± 0.074
Q34F	-0.722 ± 0.09
Q34G	-0.236 ± 0.049
Q34V	-0.413 ± 0.058
Q34A	-0.205 ± 0.055
Q34I	-0.432 ± 0.11
E40T	-0.405 ± 0.22
E40W	-1.14 ± 0.087
E40I	-0.641 ± 0.1
E40H	-0.545 ± 0.11
E40Y	-0.518 ± 0.22

Variant	abundance fitness
E40V	-0.529 ± 0.084
E40N	-0.253 ± 0.17
E40L	-0.849 ± 0.082
E40D	-0.122 ± 0.12
E40S	-0.311 ± 0.063
E40C	-0.017 ± 0.41
E40P	-0.543 ± 0.28
E40G	-0.224 ± 0.063
E40R	-0.381 ± 0.056
L33M	-0.239 ± 0.063
L33N	-0.384 ± 0.097
L33F	-0.733 ± 0.15
L33Q	-0.269 ± 0.074
L33R	-0.368 ± 0.048
L33G	-0.189 ± 0.048
L33P	-0.06 ± 0.064
L33E	-0.085 ± 0.059
L33H	-0.467 ± 0.099
L33C	-0.403 ± 0.082
L33S	-0.243 ± 0.06
L33D	-0.239 ± 0.071
L33I	-0.843 ± 0.15
L33K	-0.164 ± 0.092
L33T	-0.349 ± 0.096

Variant	abundance fitness
L33W	-0.626 ± 0.068
R32T	-0.405 ± 0.073
R32G	-0.339 ± 0.051
R32S	-0.371 ± 0.065
R32Y	-0.191 ± 0.33
R32A	-0.394 ± 0.062
R32M	-0.567 ± 0.067
R32D	-0.076 ± 0.1
R32C	-0.441 ± 0.066
R32F	-1.02 ± 0.17
R32E	-0.221 ± 0.077
R32H	-0.399 ± 0.076
R32P	-0.402 ± 0.087
R32N	-0.395 ± 0.089
R32I	-1.08 ± 0.2
R32Q	-0.262 ± 0.08
R32L	-0.854 ± 0.063
R32V	-0.643 ± 0.057
R32W	-1 ± 0.081
A36C	-0.048 ± 0.071
A36I	-0.314 ± 0.068
A36V	-0.104 ± 0.053
A36E	-0.213 ± 0.061
A36T	-0.196 ± 0.072

Variant	abundance fitness
A36M	-0.397 ± 0.069
A36Q	-0.211 ± 0.06
A36P	-0.407 ± 0.063
A36S	-0.138 ± 0.055
A36L	-0.622 ± 0.075
A36Y	-0.231 ± 0.094
A36N	-0.294 ± 0.1
A36D	-0.371 ± 0.089
A36K	-0.354 ± 0.07
A36R	-0.213 ± 0.049
A36W	-0.422 ± 0.065
A36G	-0.366 ± 0.05
A36F	-0.278 ± 0.12
V27I	-0.047 ± 0.071
V27P	0.142 ± 0.11
V27D	0.037 ± 0.074
V27Q	-0.246 ± 0.17
V27K	0.087 ± 0.1
V27Y	-0.413 ± 0.14
V27R	0.049 ± 0.051
V27E	0.038 ± 0.058
V27H	-0.009 ± 0.12
V27N	0.049 ± 0.13
V27C	0.09 ± 0.11

Variant	abundance fitness
V27W	-0.339 ± 0.084
V27L	-0.087 ± 0.065
V27M	0.002 ± 0.088
V27S	0.086 ± 0.063
V27G	-0.014 ± 0.05
V27T	-0.063 ± 0.078
L29I	-0.189 ± 0.075
L29N	-0.352 ± 0.1
L29E	-0.174 ± 0.068
L29S	-0.201 ± 0.073
L29R	-0.356 ± 0.063
L29A	-0.212 ± 0.05
L29T	-0.083 ± 0.17
L29G	-0.188 ± 0.051
L29D	-0.104 ± 0.074
L29Y	-0.486 ± 0.098
L29W	-0.853 ± 0.069
L29Q	-0.285 ± 0.07
L29P	-0.299 ± 0.067
L29F	-0.603 ± 0.16
L29H	-0.346 ± 0.098
L29K	-0.31 ± 0.09
L29C	-0.137 ± 0.063
